In patent US20250188151A1, “C-JUN ANTAGONIST PEPTIDES” (The University of Bath, priority 2022, published 2025):
Bridge positions count the residues as written; N and C are the ends. Ends that are not written are not given here. Peptide text beside a SMILES is read from it.

Columns and labels:
[1] = target: T1, cJun/TRE DNA interaction (Homo sapiens, UniProt P05412, S292Y); assay: CD cJun/TRE DNA antagonism (shift of TRE DNA peak at ~281 nm, Hill fit); type: biochemical; conditions: ratio of CD IC50
T1 construct: The same 60 amino acid c-Jun bZIP construct was used for all experiments; His-SUMO (N, cleaved yes); made in house; host or cells: E. coli
From the text: Briefly, in TBS the coding region for the essential gene dihydrofolate reductase (DHFR) is mutated to incorporate TRE sites so that introduction of c-Jun to this gene inside E. coli produces a transcriptional block that abrogates cell proliferation. The TRE site-bound c-Jun molecules sterically prevent RNA polymerase transcribing the essential gene and this can only be restored upon introduction of an effective c-Jun/TRE antagonist. Consequently, the survival of a particular cell is controlled by the ability of a peptide library member to remove the c-Jun transcriptional block and therefore to restore DHFR activity. TBS thus facilitates the identification of therapeutically valuable sequences. Further details for the TBS assay are provided in WO2020128015, which is incorporated herein by reference in its entirety. […] The TRE-DNA construct produces a positive CD peak at ˜281 nm, which decreases in intensity upon c-Jun binding. […] This method allows for the calculation of an IC50 value by fitting the titration data to a Hill equation. In some embodiments, the c-Jun antagonist is able to inhibit the DNA-binding activity of c-Jun within 10-fold of the ability of HingeW to inhibit the DNA-binding activity of c-Jun (e.g. the c-Jun antagonist has a reduced ability to inhibit the DNA-binding activity of c-Jun that is within 10-fold of that determined for HingeW). In some embodiments, the c-Jun antagonist is able to inhibit the DNA-binding activity of c-Jun within 9-fold, preferably within 8-fold, more preferably within 7-fold, even more preferably within 6-fold, yet more preferably within 5-fold of the ability of HingeW to inhibit the DNA-binding activity of c-Jun. The ability of the c-Jun antagonist and HingeW to inhibit the DNA-binding activity may be measured using the TBS assay (e.g. by quantifying the number of colonies) or by determining the IC50 using a circular dichroism assay described herein. Optionally, the c-Jun antagonist may have this activity when cross-linked. Methods for cross-linking peptides are described in more detail below.
Therefore, the acidic domain was the initial focus for optimisation. 1 was iteratively truncated (2-6) to investigate the effect on c-Jun binding and c-Jun/TRE DNA antagonism. […] Thermal denaturation experiments were then used to determine the Tm of peptide-c-Jun heterodimers, which was used as an approximate measure of target engagement. CD was also used to investigate the ability of the functional activity of peptides in antagonising the c-Jun/TRE DNA interaction. The TRE-DNA construct used produces a positive CD peak at ˜281 nm (no c-Jun absorbance at this wavelength allows for direct measurement of DNA upon binding) which decreases in intensity upon c-Jun binding. […] This allowed for the calculation of an IC50 value by fitting the titration data to a Hill equation. […] The same 60 amino acid c-Jun bZIP construct was used for all experiments, regardless of antagonist peptide length.

[2] = target: cJun bZIP (Homo sapiens, UniProt P05412, S292Y); assay: CD spectra and thermal denaturation of peptide/cJun heterodimers; conditions: peptide (5 μM)/c-Jun (5 μM) heterodimer; Table 6
[3] = target: cJun (Homo sapiens, UniProt P05412, S292Y); assay: Isothermal titration calorimetry, Example 2 (PEAQ-ITC); type: binding; parameters: The same 60 amino acid c-Jun bZIP construct was used for all experiments; His-SUMO (N, cleaved yes); made in house; host or cells: E. coli; conditions: ITC
Procedure: 2 μL injections of antagonist peptide at 25-200 μM were injected into the cell containing cJun at 2.5-20 μM. Software was used to record and analyse the heat change upon addition. Control experiments involved the injection of the antagonist peptide sample into the cell containing ITC buffer alone to determine the heat of dilution which was subtracted. The resulting binding data were fit to a one site binding model to extract the enthalpy change of binding (ΔH) and the equilibrium binding constant (KD), from which the free energy change of binding (ΔG) and the entropy change of binding (ΔS) was calculated (Wiseman et al., 1989). Thermodynamic parameters are presented as an average of two independent experiments with errors given as one standard deviation.

[4] = target: T2, cJun bZIP (human, UniProt P05412 252-308, limits assumed); assay: cell-based or functional assay
T2 chain: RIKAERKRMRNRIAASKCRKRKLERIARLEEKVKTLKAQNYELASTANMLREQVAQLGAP

[5] = target: T2, cJun bZIP; assay: cell-based or functional assay
[6] = target: T2, cJun bZIP; assay: CD thermal denaturation, peptide 5 µM and c-Jun 5 µM
[7] = target: T2, cJun bZIP; assay: ITC (PEAQ-ITC), peptide injected into cJun, one site model

Ac-EAEELVVEEDVLEEEIEQLEERNYALRKEIEDL-NH2 [Peptide 25]
fold reduction in antagonism relative to 4 [1]: 26.7 fold
fold reduction in antagonism relative to 11 [1]: 14.8 fold
Tm (° C.) [2]: 44.8 ± 1.2 °C

Ac-LARENEELEKEAEELVVEEDVLEEEIEQLEERNYALRKEIEDLQKQLEKL-NH2 [Peptide 2]
fold more effective antagonism than 10 [1]: 4 fold
fold reduction in cJun/TRE antagonism relative to 1 [1]: 1.2 fold
Tm (° C.) [2]: 68.5 ± 1.1 °C

Ac-LVVEEDVLEEEIEQLEERNYALRKEIEDLQKQLEKL-NH2 [Peptide 5]
fold better antagonism than 6 [1]: 1.7 fold
fold reduction in antagonism relative to 3 [1]: 2.3 fold
fold reduction in antagonism relative to 4 [1]: 1.7 fold
fold reduction in cJun/TRE antagonism relative to 1 [1]: 5.8 fold
Tm (° C.) [2]: 62.8 ± 1.0 °C

CC[C@H](C)[C@H](NC(=O)[C@H](CCC(=O)O)NC(=O)[C@H](CCCCN)NC(=O)[C@H](CCCNC(=N)N)NC(=O)[C@H](CC(C)C)NC(=O)[C@H](C)NC(=O)[C@H](Cc1ccc(O)cc1)NC(=O)[C@H](CC(N)=O)NC(=O)[C@H](CCCNC(=N)N)NC(=O)[C@H](CCC(=O)O)NC(=O)[C@H](CCC(=O)O)NC(=O)[C@H](CC(C)C)NC(=O)[C@H](CCC(N)=O)NC(=O)[C@H](CCC(=O)O)NC(=O)[C@@H](NC(=O)[C@H](CCC(=O)O)NC(=O)[C@H](CCC(=O)O)NC(=O)[C@H](CCC(=O)O)NC(=O)[C@H](CC(C)C)NC(=O)[C@@H](NC(=O)[C@H](CC(=O)O)NC(=O)[C@H](CCC(=O)O)NC(=O)[C@H](CCC(=O)O)NC(=O)[C@@H](NC(=O)[C@@H](NC(=O)[C@H](CC(C)C)NC(C)=O)C(C)C)C(C)C)C(C)C)[C@@H](C)CC)C(=O)N[C@@H](CCC(=O)O)C(=O)N[C@@H](CC(=O)O)C(=O)N[C@@H](CC(C)C)C(=O)N[C@@H](CCC(N)=O)C(=O)N[C@H]1CCCCNC(=O)C[C@@H](C(=O)N[C@@H](CC(C)C)C(N)=O)NC(=O)[C@H](CCC(=O)O)NC(=O)[C@H](CC(C)C)NC(=O)[C@H](CCC(N)=O)NC1=O [Peptide 10] (Ac-LVVEEDVLEEEIEQLEERNYALRKEIEDLQKQLEDL-NH2; lactam 31-35)
fold increase in antagonism relative to the linear counterpart 5 [1]: 1.9 fold
Tm (° C.) [2]: 68.3 ± 0.9 °C

Ac-EAEELVVEEDVLEEEIEQLEERNYALRKEIEDLQKQLEKL-NH2 [Peptide 4]
Tm (° C.) [2]: 64.1 ± 1.5 °C
ΔG [3]: -9.68 ± 0.115 kcal/mol
ΔH [3]: -45.399 ± 1.93 kcal/mol
−TΔS [3]: 35.73 ± 1.94 kcal/mol
Stoichiometry, n ([3]; c-Jun-peptide interaction): 0.91 ± 0.04

B1: HingeW peptide variant 2 (peptide)
peptide: Ac-LARENEELEKEAEELVVEEDVLEEEIEQLEERNYALRKEIEDLQKQLEKL-NH2
notes: Synthetic, NΔ10 CΔ3; also called peptide 2
fold decrease in antagonism, 1 to 2 [4]: 1.2 fold
fold more effective antagonism than 10 [4]: 4 fold
IC50 CD [5]: 16.6 µM
Tm (° C.) of peptide-c-Jun heterodimer [6]: 68.5 ° C.

B2: HingeW peptide variant 3 (peptide)
peptide: Ac-LEKEAEELVVEEDVLEEEIEQLEERNYALRKEIEDLQKQLEKL-NH2
notes: Synthetic, NΔ17 CΔ3; also called peptide 3
fold decrease in antagonism, 2 to 3 [4]: 2 fold
IC50 CD [5]: 33.7 µM
Tm (° C.) of peptide-c-Jun heterodimer [6]: 67.9 ° C.

B3: Peptide 5 (peptide)
peptide: Ac-LVVEEDVLEEEIEQLEERNYALRKEIEDLQKQLEKL-NH2
notes: Synthetic, NΔ24 CΔ3
fold better antagonism than 6 [4]: 1.7 fold
fold decrease in antagonism, 3 to 5 [4]: 2.3 fold
fold lower antagonism than 1 [4]: 5.8 fold
fold reduction in antagonism, 4 to 5 [4]: 1.7 fold
IC50 CD [5]: 78.2 µM
Tm (° C.) of peptide-c-Jun heterodimer [6]: 62.8 ° C.

B4: Peptide 6 (peptide)
peptide: EDVLEEEIEQLEERNYALRKEIEDLQKQLEKLGAP-NH2
notes: NΔ28; also called LZ-only portion of the HingeW molecule
fold decrease in antagonism, 5 to 6 [4]: 1.7 fold
fold decrease in cJun/TRE DNA antagonism, 1 to 6 [4]: 9.7 fold
IC50 CD [5]: 130 µM
Tm (° C.) of peptide-c-Jun heterodimer [6]: 55.1 ° C.

B5: HingeW variant peptide 8 (peptide)
peptide: Ac-LVVEEDVLEEEIEQLEEKNKALKDEIEDLQKQLEKLY-NH2
modifications: lactam 20-24 (inferred); also: table prints a different, shorter sequence for 7/8
notes: See peptide 7; also called cyclised form of 7/8
fold increase in antagonism relative to 5 [4]: 1.8 fold
IC50 CD [5]: 73.5 µM
Tm (° C.) of peptide-c-Jun heterodimer [6]: 67.2 ° C.

B6: HingeW variant peptide 10 (peptide)
peptide: Ac-LVVEEDVLEEEIEQLEERNYALRKEIEDLQKQLEDL-NH2
modifications: lactam (positions not given here); also: one i to i+4 K-to-D lactam, places not given here (K24/D28 or K31/D35)
notes: Synthetic, NΔ24 CΔ3; also called cyclised form of 9/10
fold increase in antagonism relative to 5 [4]: 1.9 fold
IC50 CD [5]: 69 µM
Tm (° C.) of peptide-c-Jun heterodimer [6]: 68.3 ° C.

B7: HingeW variant peptide 11 (peptide)
peptide: Ac-EAEELVVEEDVLEEEIEQLEERNYALRKEIEDLQKQ-NH2
notes: Synthetic, NΔ20 CΔ7
fold reduction in antagonism, 4 to 11 [4]: 1.8 fold
IC50 CD [5]: 82.1 µM
Tm (° C.) of peptide-c-Jun heterodimer [6]: 57.1 ° C.
-TΔS [7]: -2.14 kcal/mol
Kd [7]: 1.1 µM
Stoichiometry, n [7]: 0.95
ΔG [7]: -8.15 kcal/mol
ΔH [7]: -5.99 kcal/mol

B8: HingeW variant peptide 25 (peptide)
peptide: Ac-EAEELVVEEDVLEEEIEQLEERNYALRKEIEDL-NH2
notes: Synthetic, NΔ20 CΔ10
fold reduction in antagonism compared to 4 [4]: 26.7 fold
fold reduction in antagonism compared to 11 [4]: 14.8 fold
IC50 CD [5]: 1210 µM
Tm (° C.) of peptide-c-Jun heterodimer [6]: 44.8 ° C.

B9: HingeW variant peptide 27 (peptide)
peptide: Ac-EAEELVVEEDVLEEEIEQLEEKNKALKDEIEDLY-NH2
modifications: lactam 24-28 (inferred)
notes: Synthetic, NΔ20 CΔ10; also called cyclised form of 26/27
fold reduction in antagonism relative to 1 [4]: 8.8 fold
IC50 CD [5]: 118 µM
Tm (° C.) of peptide-c-Jun heterodimer [6]: 52.5 ° C.

B10: HingeW variant peptide 29 (peptide)
peptide: Ac-EAEELVVEEDVLEEEIEQLEERNYALRKEIEDLQ-NH2
modifications: lactam 28-32 (inferred)
notes: Synthetic, NΔ20 CΔ9; also called cyclised form of 28/29
fold reduction in antagonism relative to 1 [4]: 10.4 fold
IC50 CD [5]: 140 µM
Tm (° C.) of peptide-c-Jun heterodimer [6]: 57.2 ° C.
